# Experimental data reported in PMC9045395, “Assembly and Functional Role of PACE Transporter PA2880 from Pseudomonas aeruginosa” (Microbiology Spectrum, 2022).
# Where a chain is given by its changes, count along the chain named. Names may count otherwise.
# B1: PA2880 fused with enhanced green fluorescent protein (PA2880-eGFP), wild type (natural protein)
# chain: MTIQPDFNDEPGAFAMTHTHTALDKTLKERIFHALAFEGLAVLLTAPVLSLVMNKPLAHMGALTLMFSTVAMLWNMLFNSLFDRAQRRMGFQRTLQVRVLHAMLFELGLIVVLVPLAAWWLSIGLVEAFLLDMGLILFFLPYTMAFNWSYDVLRARLVESRQAKAAGCDAG
# notes: also called wt; wild-type PA2880 with fused eGFP; source: Pseudomonas stutzeri (pL2020-PA2880-eGFP), purified (Strep XT column, SEC, in DDM); not shown: eGFP (A206K variant), C-terminal, kept
# B2: wild-type PA2880 without fused eGFP (natural protein)
# chain: B1 chain
# notes: also called PA2880 without eGFP
# B3: PA2880 E38Q variant (natural protein, Pseudomonas aeruginosa strain PAO1, UniProt Q9HZW7 1-171, looked up)
# chain: B1 chain with E38Q
# notes: PACE family transporter PA2880 of Pseudomonas aeruginosa strain PAO1 with E38Q; source: purified; not shown: eGFP (A206K variant), C-terminal, kept
# Assays:
# PA2880 = target: T1, PA2880 (Pseudomonas aeruginosa, UniProt Q9HZW7); assay: native mass spectrometry (LILBID-MS); settings: 200 mM ammonium acetate, 0.02% DDM; binding increases dimer population; proton-coupled transport substrate
# T1 construct: full length, C-terminal TEV site, eGFP (A206K) and Strep-tag; also tested without eGFP in native MS; expressed in Pseudomonas stutzeri; purified in DDM; dimer
# [1] = target: the molecule itself; assay: native MS; LILBID-MS; protein in 200 mM ammonium acetate with 0.02% (wt/vol) DDM, pH 8; monomer to dimer; some samples with chlorhexidine up to a substrate/protein molar ratio of 8 (more dimer)
# native MS = target: the molecule itself; assay: native MS
# [2] = target: the molecule itself; assay: native MS; LILBID-MS; protein in 200 mM ammonium acetate with 0.02% (wt/vol) DDM, pH series from 5 to 9; monomer to dimer; dimer ratio from deconvoluted zero-charge spectra
molecule,measurement,setting,value
N=C(NCCCCCCNC(=N)NC(=N)Nc1ccc(Cl)cc1)NC(=N)Nc1ccc(Cl)cc1 [chlorhexidine],native mass spectrometry (LILBID-MS),PA2880,The LILIBID-MS results showed that chlorhexidine was bound to PA2880
B1,stoichiometry N,[1],2
B2,stoichiometry N,native MS,2
B3,stoichiometry N,[2],2
